Drawing on US20210261605A1, this text covers Kd, koff and kon for eight molecules.

The chains are these.
B1: FcR35d-containing Fc-binding protein (SEQ ID NO: 7) (receptor)
chain: KIEEAMGMRTGDMPKAEVILEPPWNRVLEQDSVTLKCRGAHSPDDDSTQWFHNERLIPSQASSFIIDSASVDDSGEYRCQTSLSTLSDPVQLEVHIGWLLLQAPRWEFVEGEPIHLRCHSWRNTALHKVMFLQNGKVRKYFHHNSDFVIPKATLEDSGSYSCRGLVGRKKVSSGAVDITVTQGGHHHHHH
B2: FcR36a-containing Fc-binding protein (SEQ ID NO: 11) (receptor)
chain: KIEEAMGMRTGDMPKAEVILEPPWNRVLEQDSVTLKCRGAHSPDDDSTQWFHNERLIPSQASSFIIDSASVDDSGEYRCQTSLSTLSDPVQLEVHIGWLLLQAPRWEFVEGEPIHLRCHSWRNTALHKVMFLQNGKVRKYFHHNSDFVIPKATLEDSGSYSCRGLAGRKKVSSGAVDITVTQGGHHHHHH
B3: FcR36i-containing Fc-binding protein (SEQ ID NO: 9) (receptor)
chain: KIEEAMGMRTGDMPKAEVILEPPWNRVLEQDSVTLKCRGAHSPDDDSTQWFHNERLIPSQASSFIIDSASVDDSGEYRCQTSLSTLSDPVQLEVHIGWLLLQAPRWEFVEGEPIHLRCHSWRNTALHKVMFLQNGKVRKYFHHNSDFVIPKATLEDSGSYSCRGLIGRKKVSSGAVDITVTQGGHHHHHH
B4: FcR35c-containing Fc-binding protein (SEQ ID NO: 5) (receptor)
chain: KIEEAMGMRTGDMPKAEVILEPPWNRVLEQDSVTLKCRGAHSPDDDSTQWFHNESLIPSQASSFIIDSASVEDSGEYRCQTSLSTLSEPVLLEVHIGWLLLQAPRWEFVEGEPIHLRCHSWRNTALHKVMFLQNGKVRKYFHHNSDFVIPKATLEDSGSYSCRGLVGRKNVSSEAVEITVTPGGHHHHHH
B5: FcR9_I (SEQ ID NO: 24), Fc-binding protein containing the amino acid substitution Val192Ile (receptor)
chain: KIEEAMGMRTEDLPKAEVILEPQWNRVLEKDSVTLKCRGAYSPEDNSTQWFHNESLISSQASSYLIDAATVDDSGEYRCQTSLSTLSDPVQLEVHIGWLLLQAPRWEFKEGDPIHLRCHSWKNTALHKVTYLQNGKGRKYFHHNSDFYIPKATLKDSGSYSCRGLIGSKNVSSETVNITITQGGHHHHHH
B6: FcR9_F, Fc-binding protein having phenylalanine substituting for valine at position 192 of FcR9 (SEQ ID NO: 20) (receptor)
chain: KIEEAMGMRTEDLPKAEVILEPQWNRVLEKDSVTLKCRGAYSPEDNSTQWFHNESLISSQASSYLIDAATVDDSGEYRCQTSLSTLSDPVQLEVHIGWLLLQAPRWEFKEGDPIHLRCHSWKNTALHKVTYLQNGKGRKYFHHNSDFYIPKATLKDSGSYSCRGLFGSKNVSSETVNITITQGGHHHHHH
B7: Fc-binding protein FcR9 (SEQ ID NO: 20) (receptor)
chain: KIEEAMGMRTEDLPKAEVILEPQWNRVLEKDSVTLKCRGAYSPEDNSTQWFHNESLISSQASSYLIDAATVDDSGEYRCQTSLSTLSDPVQLEVHIGWLLLQAPRWEFKEGDPIHLRCHSWKNTALHKVTYLQNGKGRKYFHHNSDFYIPKATLKDSGSYSCRGLVGSKNVSSETVNITITQGGHHHHHH
B8: FcR9_A (SEQ ID NO: 26), Fc-binding protein containing the amino acid substitution Val192Ala (receptor)
chain: KIEEAMGMRTEDLPKAEVILEPQWNRVLEKDSVTLKCRGAYSPEDNSTQWFHNESLISSQASSYLIDAATVDDSGEYRCQTSLSTLSDPVQLEVHIGWLLLQAPRWEFKEGDPIHLRCHSWKNTALHKVTYLQNGKGRKYFHHNSDFYIPKATLKDSGSYSCRGLAGSKNVSSETVNITITQGGHHHHHH

A word on the Kd: it is the equilibrium constant for the complex coming apart. Low readings indicate higher affinity, high ones lower affinity. What is called koff is a measure of how fast the partners let go of each other. Read a low koff as a long-lived complex. The term kon denotes the second-order rate constant of association.

In this test the target is IgG1 (product of Sigma-Aldrich). Kind of test: SPR (Biacore T100), Fc-binding protein immobilized on CM5 chip, IgG1 in flow. For orientation: In SPR one partner is held on a chip, and binding of the other changes the refractive index at the surface.
Turning to B1, the dissociation constant (Kd) amounted to 39 nM, the koff turned out to be 0.031 s⁻¹ and the on-rate (kon) was 810000 M⁻¹ s⁻¹.

On to B2, for which the Kd was determined as 95 nM, the dissociation rate constant (koff) stood at 0.13 s⁻¹ and the kon came to 1.4e+06 M⁻¹ s⁻¹.

Consider B3, for which the Kd worked out at 43 nM, the koff was 0.038 s⁻¹ and the association rate constant (kon) was 900000 M⁻¹ s⁻¹.

B4 registered a Kd of 40 nM, an off-rate constant (koff) of 0.022 s⁻¹ and a kon of 540000 M⁻¹ s⁻¹.

On to B5, for which the dissociation constant (Kd) came out at 60 nM, the koff turned out to be 0.012 s⁻¹ and the kon was 200000 M⁻¹ s⁻¹.

The molecule B6 came in with a Kd of 3300 nM, a koff of 0.3 s⁻¹ and a kon of 90000 M⁻¹ s⁻¹.

Take B7: the dissociation constant Kd came out at 77 nM, the koff came to 0.031 s⁻¹ and the kon is 410000 M⁻¹ s⁻¹.

On to B8, for which the Kd amounted to 36 nM, the dissociation rate constant (koff) came to 0.0035 s⁻¹ and the kon stood at 100000 M⁻¹ s⁻¹.
